From patent US20030003461

Target: TGFβ1 (Homo sapiens) (UniProt P01137)
Assay: filter
Details: 2'-F pyrimidines, 3' fixed sequence removed

Sequence of TGFβ1 (Homo sapiens) (P01137 279-390): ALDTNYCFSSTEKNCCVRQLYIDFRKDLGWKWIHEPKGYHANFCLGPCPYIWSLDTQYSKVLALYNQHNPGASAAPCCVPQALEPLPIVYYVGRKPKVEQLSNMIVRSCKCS

Sequence | Kd (plateau 15%) [nM] | other results
GGGAGAGGGGUCUGGAAUUUUUGGNUUACCCGUACGCCAGACGACUCGCCCGA [30NtruNc 9] |  | Kd (plateau 20%): 0.1 nM
GGGAGANCUGGUAAUUUUGGUUUANCCGUAUNCCCAGACGACUCGCCCGA [30NtruNc 32] | 22 | 
GGGAGCGGAAUUUUUGUGUAGACGUAUGCCGCUUUGNCCAGACGACUCGCCCGA [30NtruNc 37] | 0.083 | 
GGGAGGGUUAACCGUUAAGACGGCGUNAUUUUGUCCCCAGACGACUCGCCCGA [30NtruNc 7] |  | Kd (plateau 25%): 2 nM
